Measurements published in paper PMC10764318.
pKd: −log10 of the molar value.

What was measured:
Assay in all cases: BLI
[1] = molecular target: WRAIR-5020 (rhesus macaque)
[2] = molecular target: WRAIR-5004 (rhesus macaque)
[3] = molecular target: WRAIR-5021 (rhesus macaque)
[4] = molecular target: WRAIR-5001 (rhesus macaque | human)
[5] = molecular target: WRAIR-5005 (rhesus macaque)
[6] = molecular target: WRAIR-5011 (rhesus macaque)
WRAIR-5011 (rhesus macaque), sequence (VH, as listed by the source, chain 1 of 2): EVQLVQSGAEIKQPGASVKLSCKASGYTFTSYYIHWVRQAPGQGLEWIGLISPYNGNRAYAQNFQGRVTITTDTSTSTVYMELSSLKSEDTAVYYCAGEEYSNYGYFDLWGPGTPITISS
WRAIR-5011 (rhesus macaque), sequence (VL, as listed by the source, chain 2 of 2): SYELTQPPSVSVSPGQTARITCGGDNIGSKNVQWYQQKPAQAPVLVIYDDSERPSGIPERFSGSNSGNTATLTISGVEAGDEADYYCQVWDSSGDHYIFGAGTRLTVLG

WRAIR-5021 (rhesus macaque), sequence (VH, as listed by the source, chain 1 of 2): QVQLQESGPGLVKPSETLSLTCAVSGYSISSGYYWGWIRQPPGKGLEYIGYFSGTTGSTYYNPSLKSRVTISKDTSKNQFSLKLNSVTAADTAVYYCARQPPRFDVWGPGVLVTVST
WRAIR-5021 (rhesus macaque), sequence (VL, as listed by the source, chain 2 of 2): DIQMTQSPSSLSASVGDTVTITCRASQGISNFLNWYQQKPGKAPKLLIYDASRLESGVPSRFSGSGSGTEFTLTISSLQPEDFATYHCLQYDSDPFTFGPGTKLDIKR
WRAIR-5004 (rhesus macaque), sequence (VH, as listed by the source, chain 1 of 2): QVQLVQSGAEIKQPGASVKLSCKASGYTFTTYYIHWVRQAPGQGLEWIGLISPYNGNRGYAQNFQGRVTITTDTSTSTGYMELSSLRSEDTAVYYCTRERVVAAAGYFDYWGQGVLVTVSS
WRAIR-5004 (rhesus macaque), sequence (VL, as listed by the source, chain 2 of 2): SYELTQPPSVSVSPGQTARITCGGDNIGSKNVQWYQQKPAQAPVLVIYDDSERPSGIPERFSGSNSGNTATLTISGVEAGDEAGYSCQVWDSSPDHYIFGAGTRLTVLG
WRAIR-5005 (rhesus macaque), sequence (VH, as listed by the source, chain 1 of 2): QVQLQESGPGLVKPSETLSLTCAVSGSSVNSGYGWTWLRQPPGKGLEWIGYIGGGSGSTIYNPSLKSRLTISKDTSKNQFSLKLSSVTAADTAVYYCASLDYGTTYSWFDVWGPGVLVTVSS
WRAIR-5005 (rhesus macaque), sequence (VL, as listed by the source, chain 2 of 2): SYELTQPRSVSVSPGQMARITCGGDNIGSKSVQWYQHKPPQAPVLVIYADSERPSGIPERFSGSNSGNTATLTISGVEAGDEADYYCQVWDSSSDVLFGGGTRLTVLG
WRAIR-5020 (rhesus macaque), sequence (VH, as listed by the source, chain 1 of 2): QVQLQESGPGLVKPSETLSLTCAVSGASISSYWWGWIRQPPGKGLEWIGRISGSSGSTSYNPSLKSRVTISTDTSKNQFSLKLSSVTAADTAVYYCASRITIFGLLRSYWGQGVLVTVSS
WRAIR-5020 (rhesus macaque), sequence (VL, as listed by the source, chain 2 of 2): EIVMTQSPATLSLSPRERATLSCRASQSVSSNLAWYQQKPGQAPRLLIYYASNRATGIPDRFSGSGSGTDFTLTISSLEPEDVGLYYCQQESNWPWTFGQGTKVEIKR

Substance	pKd [1]	pKd [2]	pKd [3]	pKd [4]	pKd [5]	pKd [6]
SARS-CoV-2 Omicron BA.1 RBD (from UniProt P0DTC2 331-527) (domain or fragment)	7.62	8.71	8.09	9.64	7.83	9.42
SARS-CoV-2 Omicron BA.4/5 RBD (from UniProt P0DTC2 331-527) (domain or fragment)	7.46	8.51	8.58	9.04	7.39	9.38
